Experimental data: US20160264649A1

How the values were obtained:
Assay in all cases: cell-based or functional assay
[1] = target: HIV-1 MGRM-G-024 Env (HIV-1)
[2] = target: HIV-1 MGRM-C-013 Env on pseudovirus (HIV-1)
[3] = target: HIV-1 MGRM-Chronic-B-020 Env on pseudovirus (HIV-1)
[4] = target: HIV-1 MGRM-G-019 Env (HIV-1)
[5] = target: HIV-1 MGRM-AE-008 Env (HIV-1)
[6] = target: HIV-1 92UG001 Env (HIV-1)
[7] = target: HIV-1 92RW020 Env (HIV-1)
HIV-1 APV-13 Env (HIV-1) = target: HIV-1 APV-13 Env (HIV-1)
[8] = target: HIV-1 MGRM-Chronic-B-024 Env on pseudovirus (HIV-1)
[9] = target: HIV-1 MGRM-D-029 Env (HIV-1)
[10] = target: HIV-1 94UG103 Env (HIV-1)
[11] = target: HIV-1 MGRM-D-018 Env (HIV-1)
[12] = target: HIV-1 CAAN.A2 (Acute) Env on pseudovirus (HIV-1)
[13] = target: HIV-1 MGRM-C-017 Env on pseudovirus (HIV-1)
[14] = target: HIV-1 LAVI_C3 Env on pseudovirus (HIV-1)
[15] = target: HIV-1 MGRM-D-013 Env (HIV-1)
[16] = target: HIV-1 NL43 Env on pseudovirus (HIV-1)
[17] = target: HIV-1 MGRM-D-003 Env (HIV-1)
[18] = target: HIV-1 MGRM-C-015 Env on pseudovirus (HIV-1)
[19] = target: HIV-1 MGRM-AE-006 Env (HIV-1)
[20] = target: HIV-1 92TH021 Env (HIV-1)
[21] = target: HIV-1 VLGCB3 Env on pseudovirus (HIV-1)
[22] = target: HIV-1 MGRM-D-019 Env (HIV-1)
[23] = target: HIV-1 92BR020 Env on pseudovirus (HIV-1)
[24] = target: HIV-1 93TH305 Env on pseudovirus (HIV-1)
[25] = target: HIV-1 MGRM-Chronic-B-010 Env on pseudovirus (HIV-1)
[26] = target: HIV-1 MGRM-D-028 Env (HIV-1)
HIV-1 CMU02 Env (HIV-1) = target: HIV-1 CMU02 Env (HIV-1)
[27] = target: HIV-1 MGRM-G-001 Env (HIV-1)
[28] = target: HIV-1 JRCSF Env on pseudovirus (HIV-1) (UniProt P20871)
[29] = target: HIV-1 MGRM-F1-023 Env (HIV-1)
[30] = target: HIV-1 MGRM-C-002 Env on pseudovirus (HIV-1)
[31] = target: HIV-1 MGRM-D-011 Env (HIV-1)
[32] = target: HIV-1 TRO.11 (Acute) Env on pseudovirus (HIV-1)
[33] = target: HIV-1 APV_6 Env on pseudovirus (HIV-1)
[34] = target: HIV-1 IAVI-C3 Env (HIV-1)
[35] = target: HIV-1 MGRM-D-002 Env (HIV-1)
[36] = target: HIV-1 MGRM-F1-015 Env (HIV-1)
[37] = target: HIV-1 MGRM-Chronic-B-003 Env on pseudovirus (HIV-1)
[38] = target: HIV-1 MGRM-Chronic-B-017 Env on pseudovirus (HIV-1)
[39] = target: HIV-1 MGRM-D-014 Env (HIV-1)
[40] = target: HIV-1 MGRM-AG-008 Env (HIV-1)
[41] = target: HIV-1 MGRM-F1-014 Env (HIV-1)
[42] = target: HIV-1 93UG077 Env (HIV-1)
[43] = target: HIV-1 MGRM-F1-017 Env (HIV-1)
[44] = target: HIV-1 MGRM-D-001 Env (HIV-1)
[45] = target: HIV-1 92UG024 Env (HIV-1)
[46] = target: HIV-1 MGRM-AG-009 Env (HIV-1)
[47] = target: HIV-1 MGRM-G-004 Env (HIV-1)
HIV-1 JRCSF Env (HIV-1) = HIV-1 JRCSF Env (HIV-1) (UniProt P20871)

2G12 (antibody)
IC50 (µg/ml), pseudovirus neutralization [1]: > 50 µg/mL
IC50 [2]: > 50 µg/mL
IC50 [3]: 0.2 µg/mL
IC50 (µg/ml), pseudovirus neutralization [4]: 31 µg/mL
IC50 (µg/ml), pseudovirus neutralization [5]: > 50 µg/mL
IC50 (µg/ml), pseudovirus neutralization [6]: > 50 µg/mL
neutralization IC50 [7]: 0.56 µg/mL
neutralization IC90 [7]: 6.23 µg/mL
neutralization IC50 (HIV-1 APV-13 Env (HIV-1)): 23.9 µg/mL
IC50 [8]: > 50 µg/mL
IC50 (µg/ml), pseudovirus neutralization [9]: > 50 µg/mL
neutralization IC50 [10]: > 50 µg/mL
neutralization IC90 [10]: > 50 µg/mL
IC50 (µg/ml), pseudovirus neutralization [11]: 0.12 µg/mL
IC50 [12]: > 50 µg/mL
IC50 [13]: > 50 µg/mL
IC50 [14]: > 50 µg/mL
IC50 (µg/ml), pseudovirus neutralization [15]: > 50 µg/mL
IC50 [16]: 0.49 µg/mL
IC50 (µg/ml), pseudovirus neutralization [17]: > 50 µg/mL
IC50 [18]: 1.75 µg/mL
IC50 (µg/ml), pseudovirus neutralization [19]: > 50 µg/mL
IC50 (µg/ml), pseudovirus neutralization [20]: > 50 µg/mL
neutralization IC50 [20]: > 50 µg/mL
neutralization IC90 [20]: > 50 µg/mL
IC50 [21]: 7.9 µg/mL
IC50 (µg/ml), pseudovirus neutralization [22]: > 50 µg/mL
IC50 [23]: 4.84 µg/mL
IC50 [24]: 0.55 µg/mL
IC50 [25]: 1.5 µg/mL
IC50 (µg/ml), pseudovirus neutralization [26]: > 50 µg/mL
IC50 (µg/ml), pseudovirus neutralization (HIV-1 CMU02 Env (HIV-1)): > 50 µg/mL
neutralization IC50 (HIV-1 CMU02 Env (HIV-1)): > 50 µg/mL
neutralization IC90 (HIV-1 CMU02 Env (HIV-1)): > 50 µg/mL
IC50 (µg/ml), pseudovirus neutralization [27]: > 50 µg/mL
IC50 [28]: 0.37 µg/mL
IC50 (pseudovirus neutralization) [29]: 9.23 µg/mL
IC50 [30]: > 50 µg/mL
IC50 (µg/ml), pseudovirus neutralization [31]: 1.5 µg/mL
IC50 [32]: 0.29 µg/mL
IC50 [33]: 1.9 µg/mL
neutralization IC50 [34]: > 50 µg/mL
neutralization IC90 [34]: > 50 µg/mL
IC50 (µg/ml), pseudovirus neutralization [35]: > 50 µg/mL
IC50 (pseudovirus neutralization) [36]: > 50 µg/mL
IC50 [37]: 0.06 µg/mL
IC50 [38]: > 50 µg/mL
IC50 (µg/ml), pseudovirus neutralization [39]: > 50 µg/mL
IC50 (µg/ml), pseudovirus neutralization [40]: > 50 µg/mL
IC50 (pseudovirus neutralization) [41]: > 50 µg/mL
neutralization IC50 [42]: > 50 µg/mL
neutralization IC90 [42]: > 50 µg/mL
IC50 (pseudovirus neutralization) [43]: > 50 µg/mL
IC50 (µg/ml), pseudovirus neutralization [44]: > 50 µg/mL
IC50 (µg/ml), pseudovirus neutralization [45]: 0.42 µg/mL
neutralization IC50 [45]: 0.59 µg/mL
neutralization IC90 [45]: 7.57 µg/mL
IC50 (µg/ml), pseudovirus neutralization [46]: > 50 µg/mL
IC50 (µg/ml), pseudovirus neutralization [47]: > 50 µg/mL
neutralization IC50 (HIV-1 JRCSF Env (HIV-1)): 0.66 µg/mL
neutralization IC90 (HIV-1 JRCSF Env (HIV-1)): 5.38 µg/mL

4E10 (antibody)
IC50 (µg/ml), pseudovirus neutralization [1]: 1.57 µg/mL
IC50 [2]: 2.1 µg/mL
IC50 [3]: 2.45 µg/mL
IC50 (µg/ml), pseudovirus neutralization [4]: 6.53 µg/mL
IC50 (µg/ml), pseudovirus neutralization [5]: 0.94 µg/mL
IC50 (µg/ml), pseudovirus neutralization [6]: 13.6 µg/mL
neutralization IC50 [7]: 3.38 µg/mL
neutralization IC90 [7]: 36.1 µg/mL
neutralization IC50 (HIV-1 APV-13 Env (HIV-1)): 3.8 µg/mL
IC50 [8]: 9.19 µg/mL
IC50 (µg/ml), pseudovirus neutralization [9]: 5.3 µg/mL
neutralization IC50 [10]: 9.7 µg/mL
neutralization IC90 [10]: > 50 µg/mL
IC50 (µg/ml), pseudovirus neutralization [11]: 3.9 µg/mL
IC50 [12]: 17.9 µg/mL
IC50 [13]: 1.47 µg/mL
IC50 [14]: 2.85 µg/mL
IC50 (µg/ml), pseudovirus neutralization [15]: 5.38 µg/mL
IC50 [16]: 4.67 µg/mL
IC50 (µg/ml), pseudovirus neutralization [17]: 2.49 µg/mL
IC50 [18]: 2.52 µg/mL
IC50 (µg/ml), pseudovirus neutralization [19]: 0.23 µg/mL
IC50 (µg/ml), pseudovirus neutralization [20]: 1.17 µg/mL
neutralization IC50 [20]: 1.9 µg/mL
neutralization IC90 [20]: 23.5 µg/mL
IC50 [21]: 5.76 µg/mL
IC50 (µg/ml), pseudovirus neutralization [22]: 0.04 µg/mL
IC50 [23]: > 50 µg/mL
IC50 [24]: 12.3 µg/mL
IC50 [25]: 1.69 µg/mL
IC50 (µg/ml), pseudovirus neutralization [26]: 1.28 µg/mL
IC50 (µg/ml), pseudovirus neutralization (HIV-1 CMU02 Env (HIV-1)): 0.72 µg/mL
neutralization IC50 (HIV-1 CMU02 Env (HIV-1)): 0.59 µg/mL
neutralization IC90 (HIV-1 CMU02 Env (HIV-1)): 13.4 µg/mL
IC50 (µg/ml), pseudovirus neutralization [27]: 2.04 µg/mL
IC50 [28]: 3.3 µg/mL
IC50 (pseudovirus neutralization) [29]: 0.44 µg/mL
IC50 [30]: 18.2 µg/mL
IC50 (µg/ml), pseudovirus neutralization [31]: 0.91 µg/mL
IC50 [32]: 1.39 µg/mL
IC50 [33]: 1.1 µg/mL
neutralization IC50 [34]: 5 µg/mL
IC50 (µg/ml), pseudovirus neutralization [35]: 9.44 µg/mL
IC50 (pseudovirus neutralization) [36]: 0.53 µg/mL
IC50 [37]: 3.5 µg/mL
IC50 [38]: 2.77 µg/mL
IC50 (µg/ml), pseudovirus neutralization [39]: 3.24 µg/mL
IC50 (µg/ml), pseudovirus neutralization [40]: 1.48 µg/mL
IC50 (pseudovirus neutralization) [41]: 7.36 µg/mL
neutralization IC50 [42]: 11.2 µg/mL
neutralization IC90 [42]: > 50 µg/mL
IC50 (pseudovirus neutralization) [43]: 4.92 µg/mL
IC50 (µg/ml), pseudovirus neutralization [44]: 1.84 µg/mL
IC50 (µg/ml), pseudovirus neutralization [45]: 2.17 µg/mL
neutralization IC50 [45]: 1.32 µg/mL
neutralization IC90 [45]: 23.7 µg/mL
IC50 (µg/ml), pseudovirus neutralization [46]: 31.4 µg/mL
IC50 (µg/ml), pseudovirus neutralization [47]: 1.47 µg/mL
neutralization IC50 (HIV-1 JRCSF Env (HIV-1)): 6 µg/mL
neutralization IC90 (HIV-1 JRCSF Env (HIV-1)): 44.1 µg/mL
